B1: HESX1 (parent)
chain: ENKPSTCSFSIERILGLDQKKDCV

Variants of: B1
Experiment: protein stability index of a GFP-peptide fusion (GPS, HEK-293T) (PSI 1-6); higher = more stable
Details: c terminus: a fixed tail appended
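Also: lentivirally expressed fusions sorted by FACS into six bins by GFP to DsRed ratio, PSI derived from sequencing read proportions per bin multiplied by bin number.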

Variant	protein stability index
ENKPKTCSFSIERILGLDQKKDCV [S5K]	2.85
ENKPFTCSFSIERILGLDQKKDCV [S5F]	1.96
ENKPMTCSFSIERILGLDQKKDCV [S5M]	2.75
ENKPRTCSFSIERILGLDQKKDCV [S5R]	2.56
ENKPHTCSFSIERILGLDQKKDCV [S5H]	2.81
ENKPQTCSFSIERILGLDQKKDCV [S5Q]	2.89
ENKPYTCSFSIERILGLDQKKDCV [S5Y]	2.54
ENKPATCSFSIERILGLDQKKDCV [S5A]	2.94
ENKPETCSFSIERILGLDQKKDCV [S5E]	3.77
ENKPPTCSFSIERILGLDQKKDCV [S5P]	3.48
ENKPVTCSFSIERILGLDQKKDCV [S5V]	2.5
ENKPWTCSFSIERILGLDQKKDCV [S5W]	2.13
ENKPGTCSFSIERILGLDQKKDCV [S5G]	3.31
ENKPLTCSFSIERILGLDQKKDCV [S5L]	2.18
ENKPCTCSFSIERILGLDQKKDCV [S5C]	2.71
ENKPNTCSFSIERILGLDQKKDCV [S5N]	3.09
ENKPTTCSFSIERILGLDQKKDCV [S5T]	3.42
ENKPDTCSFSIERILGLDQKKDCV [S5D]	3.16
ENKPITCSFSIERILGLDQKKDCV [S5I]	3.02
ENKPSTMSFSIERILGLDQKKDCV [C7M]	3.32
ENKPSTGSFSIERILGLDQKKDCV [C7G]	3.87
ENKPSTQSFSIERILGLDQKKDCV [C7Q]	3.96
ENKPSTNSFSIERILGLDQKKDCV [C7N]	4.05
ENKPSTVSFSIERILGLDQKKDCV [C7V]	3.17

Variant	protein stability index
ENKPSTRSFSIERILGLDQKKDCV [C7R]	3.92
ENKPSTPSFSIERILGLDQKKDCV [C7P]	4.01
ENKPSTSSFSIERILGLDQKKDCV [C7S]	3.98
ENKPSTYSFSIERILGLDQKKDCV [C7Y]	3.43
ENKPSTESFSIERILGLDQKKDCV [C7E]	4.23
ENKPSTDSFSIERILGLDQKKDCV [C7D]	4.13
ENKPSTISFSIERILGLDQKKDCV [C7I]	1.84
ENKPSTWSFSIERILGLDQKKDCV [C7W]	2.33
ENKPSTASFSIERILGLDQKKDCV [C7A]	3.58
ENKPSTHSFSIERILGLDQKKDCV [C7H]	3.91
ENKPSTKSFSIERILGLDQKKDCV [C7K]	3.52
ENKPSTLSFSIERILGLDQKKDCV [C7L]	2.94
ENKPSTTSFSIERILGLDQKKDCV [C7T]	3.74
ENKPSTFSFSIERILGLDQKKDCV [C7F]	3.11
ECKPSTCSFSIERILGLDQKKDCV [N2C]	2.57
ELKPSTCSFSIERILGLDQKKDCV [N2L]	2.79
ETKPSTCSFSIERILGLDQKKDCV [N2T]	2.91
EAKPSTCSFSIERILGLDQKKDCV [N2A]	2.15
EWKPSTCSFSIERILGLDQKKDCV [N2W]	1.91
EKKPSTCSFSIERILGLDQKKDCV [N2K]	3.37
EYKPSTCSFSIERILGLDQKKDCV [N2Y]	1.77
EPKPSTCSFSIERILGLDQKKDCV [N2P]	2.82
EMKPSTCSFSIERILGLDQKKDCV [N2M]	2.53
EGKPSTCSFSIERILGLDQKKDCV [N2G]	2.49

Variant	protein stability index
EHKPSTCSFSIERILGLDQKKDCV [N2H]	2.57
ESKPSTCSFSIERILGLDQKKDCV [N2S]	2.87
EFKPSTCSFSIERILGLDQKKDCV [N2F]	1.97
ERKPSTCSFSIERILGLDQKKDCV [N2R]	2.88
EVKPSTCSFSIERILGLDQKKDCV [N2V]	2.88
EDKPSTCSFSIERILGLDQKKDCV [N2D]	2.94
EIKPSTCSFSIERILGLDQKKDCV [N2I]	2.32
EEKPSTCSFSIERILGLDQKKDCV [N2E]	3.52
EQKPSTCSFSIERILGLDQKKDCV [N2Q]	2.93
ENKDSTCSFSIERILGLDQKKDCV [P4D]	3.86
ENKWSTCSFSIERILGLDQKKDCV [P4W]	2.54
ENKHSTCSFSIERILGLDQKKDCV [P4H]	2.52
ENKCSTCSFSIERILGLDQKKDCV [P4C]	2.42
ENKQSTCSFSIERILGLDQKKDCV [P4Q]	3.18
ENKSSTCSFSIERILGLDQKKDCV [P4S]	2.71
ENKLSTCSFSIERILGLDQKKDCV [P4L]	2.86
ENKRSTCSFSIERILGLDQKKDCV [P4R]	3.41
ENKFSTCSFSIERILGLDQKKDCV [P4F]	2.62
ENKMSTCSFSIERILGLDQKKDCV [P4M]	2.99
ENKNSTCSFSIERILGLDQKKDCV [P4N]	2.79
ENKKSTCSFSIERILGLDQKKDCV [P4K]	2.7
ENKVSTCSFSIERILGLDQKKDCV [P4V]	3.35
ENKASTCSFSIERILGLDQKKDCV [P4A]	2.99
ENKISTCSFSIERILGLDQKKDCV [P4I]	3.02

Variant	protein stability index
ENKGSTCSFSIERILGLDQKKDCV [P4G]	2.84
ENKTSTCSFSIERILGLDQKKDCV [P4T]	3.67
ENKYSTCSFSIERILGLDQKKDCV [P4Y]	1.94
ENKPSFCSFSIERILGLDQKKDCV [T6F]	2.85
ENKPSMCSFSIERILGLDQKKDCV [T6M]	2.37
ENKPSYCSFSIERILGLDQKKDCV [T6Y]	3.16
ENKPSWCSFSIERILGLDQKKDCV [T6W]	2.53
ENKPSNCSFSIERILGLDQKKDCV [T6N]	3.06
ENKPSDCSFSIERILGLDQKKDCV [T6D]	3.96
ENKPSECSFSIERILGLDQKKDCV [T6E]	3.39
ENKPSVCSFSIERILGLDQKKDCV [T6V]	2.71
ENKPSACSFSIERILGLDQKKDCV [T6A]	3.46
ENKPSRCSFSIERILGLDQKKDCV [T6R]	2
ENKPSICSFSIERILGLDQKKDCV [T6I]	2.9
ENKPSCCSFSIERILGLDQKKDCV [T6C]	2.43
ENKPSGCSFSIERILGLDQKKDCV [T6G]	3.5
ENKPSQCSFSIERILGLDQKKDCV [T6Q]	3.12
ENKPSKCSFSIERILGLDQKKDCV [T6K]	2.41
ENKPSPCSFSIERILGLDQKKDCV [T6P]	2.77
ENKPSLCSFSIERILGLDQKKDCV [T6L]	3.14
ENKPSHCSFSIERILGLDQKKDCV [T6H]	3.24
ENKPSSCSFSIERILGLDQKKDCV [T6S]	3.12
